Experimental findings from US20160130340A1 (ALDERBIO, published 2016) are described below.

As a reminder, the Kd is the concentration at which binding is half-saturated. What is called koff is the first-order rate constant of dissociation. One may read the kon as the second-order rate constant of association.

Assay [1] has as its target T1, Human IL-6 (human, UniProt P05231 30-212).
T1 construct: also called huIL-6; Interleukin-6
The assay is described as follows: Octet bio-layer interferometry; antibody captured on anti-human IgG Fc sensor, then IL-6, then soluble IL-6R1, then gp130 in the presence of IL-6R1; blocked ligands: IL-6R1 and gp130. On the procedure: (§1) To determine the antibody mechanism of action, mechanistic studies were performed using bio-layer interferometry with an Octet QK instrument (ForteBio; Menlo Park, Calif.). Studies were performed in two different configurations. […] Binding is monitored as an increase in signal.
(§2) In the second orientation, the antibody was bound to a biosensor coated with an anti-human IgG1 Fc-specific reagent (ForteBio part number 18-5001). […] All studies were performed in a 200 μL final volume, at 30° C. and 1000 rpm. For these studies, all proteins were diluted using ForteBio's sample diluent buffer (part number 18-5028).
(Biolayer interferometry detects binding as a change in optical thickness at a sensor tip.)

The target in assay [2] is T1, Human IL-6. The assay is described as follows: Octet bio-layer interferometry; antibody captured on anti-human IgG Fc sensor, then IL-6, then soluble IL-6R1, then gp130 in the presence of IL-6R1; ligand whose binding is slowed: gp130. As to the method: as §1, §2
In assay [3] the target is T1, Human IL-6. The assay is described as follows: Octet bio-layer interferometry; biotinylated IL-6 on streptavidin sensor, then antibody or buffer, then soluble IL-6R1, then gp130 in the presence of IL-6R1; blocked ligand: gp130. As to the method: as §1
The IL-6 bound to the sensor was then incubated either with the antibody in question or diluent solution alone.

Assay [4] has as its target T2, Mouse IL-6 (mouse, UniProt P08505 25-211).
T2 sequence (looked up): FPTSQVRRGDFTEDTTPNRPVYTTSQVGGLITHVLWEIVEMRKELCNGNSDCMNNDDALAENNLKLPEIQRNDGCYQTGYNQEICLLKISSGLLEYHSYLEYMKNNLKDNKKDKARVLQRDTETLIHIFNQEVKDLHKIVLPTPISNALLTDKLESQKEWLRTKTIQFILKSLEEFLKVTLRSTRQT
The assay is described as follows: cell-based or functional assay.

For assay [5], the target named is T3, Cynomolgus monkey IL-6 (cynomolgus monkey, UniProt P79341 28-212, limits assumed).
T3 sequence (looked up): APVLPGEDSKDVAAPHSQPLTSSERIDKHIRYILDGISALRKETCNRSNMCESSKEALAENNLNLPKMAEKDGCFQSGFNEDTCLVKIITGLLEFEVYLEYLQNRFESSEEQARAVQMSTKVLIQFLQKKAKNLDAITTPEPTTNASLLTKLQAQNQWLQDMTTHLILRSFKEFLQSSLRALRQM
The assay is described as follows: cell-based or functional assay.

The target in assay [6] is T1, Human IL-6. The assay is described as follows: cell-based or functional assay.
For assay [7], the target named is T4, Rat IL-6 (rat, UniProt P20607 25-211).
T4 sequence (looked up): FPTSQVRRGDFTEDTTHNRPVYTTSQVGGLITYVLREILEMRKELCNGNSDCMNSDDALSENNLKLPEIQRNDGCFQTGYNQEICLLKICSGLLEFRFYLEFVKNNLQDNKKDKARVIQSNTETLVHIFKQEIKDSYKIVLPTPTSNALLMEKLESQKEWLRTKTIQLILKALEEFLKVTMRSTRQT
The assay is described as follows: cell-based or functional assay.

The target in assay [8] is T2, Mouse IL-6. The assay is described as follows: surface plasmon resonance, 25 C, averaged constants. For orientation: SPR reads the build-up and loss of mass on a sensor chip optically.
The target in assay [9] is T3, Cynomolgus monkey IL-6. The assay is described as above.
The target of assay [10] is T1, Human IL-6. The description is as above.
For assay [11], the target named is T4, Rat IL-6. The description is as above.

B1: Ab6 (antibody, V domains shown)
VH: QSVEESGGRLVTPGTPLTLTCTVSGIDLSDYAMSWVRQAPGKGLEWIGIIYAGSGSTWYASWAKGRFTISKTSTTVDLKITSPTTEDTATYFCARDGYDDYGDFDRLDLWGPGTLVTVSS
VL: AAVLTQTPSPVSVPVGGTVTIKCQSSQSVYNNFLSWYQQKPGQPPKLLIYQASKLASGVPDRFSGSGSGTQFTLTISGVQCDDAATYYCLGGYDDDADNAFGGGTEVVVKR
notes: Captured on an anti-human IgG1 Fc sensor
As for B1, in assay [1], the binding result is “binds”.

B2: Ab2 (antibody, V domains shown)
VH: QEQLKESGGRLVTPGTPLTLTCTASGFSLNDHAMGWVRQAPGKGLEYIGFINSGGSARYASWAEGRFTISRTSTTVDLKMTSLTTEDTATYFCVRGGAVWSIHSFDPWGPGTLVTVSS
VL: AYDMTQTPASVEVAVGGTVTINCQASETIYSWLSWYQQKPGQPPKLLIYQASDLASGVPSRFSGSGAGTEYTLTISGVQCDDAATYYCQQGYSGSNVDNVFGGGTEVVVKR
notes: The entry may carry a leader
In the case of B2, in [2], the binding result is recorded as “binds”.

B3: Ab4 (antibody, V domains shown)
VH: QEQLKESGGGLVTPGGTLTLTCTASGFSLNAYYMNWVRQAPGKGLEWIGFITLNNNVAYANWAKGRFTFSKTSTTVDLKMTSPTPEDTATYFCARSRGWGAMGRLDLWGHGTLVTVSS
VL: DPVLTQTPSPVSAPVGGTVSISCQASQSVYENNYLSWFQQKPGQPPKLLIYGASTLDSGVPSRFKGSGSGTQFTLTITDVQCDDAATYYCAGVYDDDSDDAFGGGTEVVVKR
notes: as for B1
As for B3, the binding result in assay [3] is given as “binds”.

B4: Ab3 (antibody, V domains shown)
VH: QSLEESGGRLVTPGTPLTLTCTASGFSLSVYYMNWVRQAPGKGLEWIGFITMSDNINYASWAKGRFTISKTSTTVDLKMTSPTTEDTATYFCARSRGWGTMGRLDLWGPGTLVTVSS
VL: AAVLTQTPSPVSAAVGGTVSISCQASQSVYDNNYLSWFQQKPGQPPKLLIYGASTLASGVPSRFVGSGSGTQFTLTITDVQCDDAATYYCAGVYDDDSDNAFGGGTEVVVKR
notes: as for B1
B4: in assay [3], the binding result was “binds”.

B5: Ab1 (antibody, human IgG1, kappa, N297A, V domains shown)
VH: EVQLVESGGGLVQPGGSLRLSCAASGFSLSNYYVTWVRQAPGKGLEWVGIIYGSDETAYATSAIGRFTISRDNSKNTLYLQMNSLRAEDTAVYYCARDDSSDWDAKFNLWGQGTLVTVSS
VL: AIQMTQSPSSLSASVGDRVTITCQASQSINNELSWYQQKPGKAPKLLIYRASTLASGVPSRFSGSGSGTDFTLTISSLQPDDFATYYCQQGYSLRNIDNAFGGGTKVEIKR
notes: Humanized from a rabbit antibody, IgG1 kappa, aglycosylated, produced in Pichia pastoris; also called clazakizumab; ALD518
On to B5, for which the “IC50 (pM), T1165 cell proliferation stimulated by the species' IL-6” value in assay [4] is 1840 pM; in assay [5], 12 pM; in assay [6] it was 13 pM; in [7], 2060 pM. Also, the Kd came to 400 pM in [8], 31 pM in assay [9], 4 pM in assay [10] and 1400 pM in assay [11]. Moreover, the koff is 0.0004 s⁻¹ in assay [8], 3e-06 s⁻¹ in assay [9], 5e-07 s⁻¹ in [10] and 0.0022 s⁻¹ in assay [11]. In addition, the on-rate (kon) in assay [8] stood at 1.1e+06 M⁻¹ s⁻¹; in [9], 96000 M⁻¹ s⁻¹; in assay [10], 160000 M⁻¹ s⁻¹; in assay [11], 1.6e+06 M⁻¹ s⁻¹.
